Drawing on the supplement of paper PMC10567573, this text covers protein stability index for four proteins.

The data set in a line: protein stability index of a GFP-peptide fusion (GPS, HEK-293T) (PSI 1-6); higher = more stable. Conditions: c terminus: native.
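Further: lentivirally expressed fusion library, cells FACS-sorted into six equal-sized GFP/DsRed ratio bins, PSI computed from sequencing read fractions per bin weighted by bin number.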

For the protein DGWIRVSSDNVADLHEKYSGSTPQ [PSMB5 addQ], for the setting “parent: NP_002788.1”, the protein stability index was found to be 3.53.

Take CQPISFSGFGAEDDDLGGLGLGPQ [POLD2 addQ]: the protein stability index (parent: NP_006221.1) worked out at 2.97.

EQRNSRWNTVLRAVKAKTHHLEPQ [TRPA1 addQ]: under “parent: NP_015628.1”, the protein stability index was found to be 4.94.

As to LPALFTDLYSQEITAEEAREALPQ [SNF8 addQ], the protein stability index (parent: NP_009172.2) was found to be 5.05.
